We go through 22 sequences from the DeepSol protein solubility set.

A short description of this data set: soluble on expression in E. coli; label from the status in PepcDB or PDB records.
Take “MPLTPADVHNVAFSKPPIGKRGYNEDEVDQFLDLVEDTLAEIQEENDDLRQQIEELQSSPRAEGSKPAAAPAAVSSLDETKLRKEIEAKVAAEYRAKLADAQEATERAQAELKMAREEADSAKAAAKKAEEAARAAASAATKAQPVAAVAPVGTDGGSATADTHLQAAKVLSMAQEMADRLTAEADSNSKSMLSEARAAAEKQVSDAEAKAKTTLADARQKAEKQLADADARSKALVSDAEKKSAQTLSDANTRAEAQVRQAEEKANALQADAERKHTEIMATVKQQQNALESRISELRTFEREYRTRLKTLLQTQLDELESRGTSAPEDKNV”: the “soluble on expression in E. coli” value is on record as “not soluble”.

Regarding “MLRVLVGAVLPAMLLAAPPPINKLALFPDKSAWCEAKNITQIVGHSGCEAKSIQNRACLGQCFSYSVPNTFPQSTESLVHCDSCMPAQSMWEIVTLECPGHEEVPRVDKLVEKILHCSCQACGKEPSHEGLSVYVQGEDGPGSQPGTHPHPHPHPHPGGQTPEPEDPPGAPHTEEEGAED”, the “soluble on expression in E. coli” value is on record as “soluble”.

In the case of “MSAVSNGNPSIVSPRGEHKGTLIFLHGLGDQGHGWADAFKTEAKHDNIKFICPHSSERPVTLNMGMRMPAWFDLFGLDPNAQEDEQGINRATQYVHQLIDAEVAAGIPASRIAVGGFSMGGALAIYAGLTYPQKLGGIVGLSSFFLQRTKFPGSFTANNATPIFLGHGTDDFLVPLQFGQMSEQYIKKFNPKVELHTYRGMQHSSCGEEMRDVKTFLSAHIAH”, the “soluble on expression in E. coli” value is recorded as “not soluble”.

On to “MRHRGGRGFRGWWLASTILLLVAEKPSHGYELAERLAEFGIEIPGIGHMGNIYRVLADLEESGFLSTEWDTTVSPPRKIYRITPQGKLYLREILRSLEDMKRRIETLEERIKRVLQEE”, for which the “soluble on expression in E. coli” value was “soluble”.

As for “MEKIIEVNSVSKTFKHKKAVNNVSFHVNKGEIVALLGPNGAGKTTTMSMMLGLKDPTEGTVSIFGKNPKHRDVRNSLGAMLQEVSVIDSITVEEAIELFRSYYTNPVAKETLLQLSNLELERKQRCEKLSGGQKRRLNFALALAGNPDLLFLDEPTVGMDITSRRTFWETIRKLVSEGKTIILTTHYLEEADALADRILLFVNGKIIADGTPDEMKATISRKTISFYSKESIPAKLLKELPNVTEVQAKEGHFTLTTEDTDATLKAIYQKNLPVTDVSVERGSLDEAFEQFVANQKEEIA”, the “soluble on expression in E. coli” value was “not soluble”.

For the sequence “MAHHHHHHMKARSSRPVTTITVTSEETIQTHNARDTPRTFEYKTKRNELMRRLEEMRNALEEDNNNNNKGSRVKLCYYDITFNCRDPVDVTVMSGFQRFEGLGDTLSGHMKCEEDDRHKFVGLIKEIIQLDVSHRARNMDKSEIAVVRIAANFKELNSTFTRSAATLL”, the “soluble on expression in E. coli” value is given as “not soluble”.

Regarding “MSLKIMGFYSQVILPRLLDWSLSDPTLATYRQELLTDVTGEVLEIGFGTGLNLAYYPSHIHKITTVDVNPGMNTIAQKRIDDSGIKVQQLLLSGENLPMADNTFDSVVSTWTLCSIANVEQALQEVYRVLKPGGKFFFLEHGLSNKPNVQVWQNRLTPIQKVLADGCHLNRNIQQLVEQSFDHVELKRFTPENFPDLMAHFYKGCATKKSIEGHHHHHH”, the “soluble on expression in E. coli” value is recorded as “not soluble”.

With “MVIIMQFYKEENFKEMHGLRVPEDWEVVRIGDFIKYIKGKKPAVMVDEELEGYYPYLSTEYLRDGIASKFVKITNKEIIVNENDILLLWDGSNAGEIFLGKKGILSSTMVKLEQKNKIMDDLYLFYSLKLKESFLKSQTKGTGIPHVDKKIFENIKIPLPPLEEQKQIAKILSDFDNLIGTINKQIEVLNKAKKGMMKKLFTKGVFEHKSFKKSEIGEIPEDWEVVKLKEVVDIQSGKYFKYSEFCENGVKCLKIDNVGFGKIFWETVSFLPEDYLNKYPQLVLKSGDIVLALNRPIIGGKIKIGILKDIDEPAILYQRVGRFIFKSEKIDKQFLFYLLMSEYFKKELSKLLIGTDQPYIRTPVLLNIKIPLPHLEEQKAMAERLKSIDNLIEIKRKEKEQIEKAKKKIMNLLLTGKIRVKNLNF”, the “soluble on expression in E. coli” value is on record as “soluble”.

Turning to “MGSDKIHHHHHHMTLKVTLCDDSKMARKQLLRTLPDDWDAEVHQAEHGEQALTCLREGRAEVLFLDLNMPVKDGYETLQAIKEEQLETLVIVVSGDIQPEAQKRVQALGAMAFVKKPMKPEDIQTLLQQFGLYQPAAGQLKLADETPQAPANPLDVYREVSNVAMGQAGDHLARVLDTFIELPVPNVNFIAPSELHMAIESIDTNKQVAAVSQGFSGSGILGEALTLFNDASIDDIGKLLGAKLGESGSIKQQRIESLMDVASILSSACLNGLGQQLHVEFAASQPVLLGEHQSMRELIKHGEHRWQKILAIEIGYQLPEHKLAFDLLLLFPADAVKILDQQLAHWLQGDDE”, the “soluble on expression in E. coli” value is “not soluble”.

“FLGELLIDLPLPVDTPSVDQCEKCRACITSCPTQAIVEDKVVDARRCISYLTIEFDGVIPEEFRKPMGNRIYGCDDCQLVCPWNRYADVTEQEDFHRRESFHNPDLVE”: the “soluble on expression in E. coli” value was “not soluble”.

In the case of “MIELEVFPHRYLKAETTEKFLNRAYSLSKVQRVVIHGESLPNKVGYGPAKGTPVNHSEKKEITVKGVPVELMLQVGRLWVLLDDESEIEKIEEICKDLFPFGYRLTKGKFLRNDPTVSDFIKYGESAVDDIDKRLLGATDPRSKFDSSVTIIPKSEKNELEHHHHHH”, the “soluble on expression in E. coli” value is given as “soluble”.

In the case of “MAEKSCSLTEFVGTAIGDTLGLVIANVDTALLDAMKLEKRYRSIGILGARTGAGPHIMAADEAVKATNTEVVSIELPRDTKGGAGHGSLIILGGNDVSDVKRGIEVALKELDRTFGDVYGNEAGHIELQYTARASYALEKAFGAPIGRACGIIVGAPASVGVLMADTALKSANVEVVAYSSPAHGTSFSNEAILVISGDSGAVRQAVTSAREIGKTVLATLGSEPKNDRPSYI”, the “soluble on expression in E. coli” value was “not soluble”.

Regarding “MTRHQTHLPFHIVQEGNSIDKPPYSYVALIAMAIDASPDKRMTLNQIYKFIEAKFPYYRDADAKRKQGWQNSIRHNLSLNDCFVKKARDGQSCANDRKGNYWQMVADNAPQFDNGNFKRRRVKRLGIGKMGYANTTETTETGTILQQQLPFFNGLKWPQNIQTMDPFQFFKFQYPNSITDSANTSQINNSSSSSSSFDTSIYTSAFPIPTSHFDTNLVAPSQPPPVVSDVEVVPSDTVKEEVLVDMKPLIPGISSTTFLTSLQMTDPRSIEQQQLLSTASNMYPNAFMPPYTNWSCQPTTTFTGLSFDDPSLYGYGQQFPASS”, the “soluble on expression in E. coli” value was “not soluble”.

For “MSAEQDKEPIALKRVRGGDSGLDGLGGPNIQLGSPDKKKRKANTQGSSFPPLSEYAPPPNPNSDHLVAANPFDDSYNTISYKPLPSSNPYLGPGYPGFGGYSTFRMPPHVPPRMSSPYCGPYSLRNQPHPFPQNPLGMGFNRPHAFNFGPHDNSNFGNPPYNNVLTQDINMPGQHFRQGSAENFSQIPPQNVGQVSNPDLASNFAPGNNSNFTSPLETNHSFIPPPNAFGQAKAPLPKQDFTQGATKTPNQNSSTHPPHLNMEDPVNQSNVELKNVNRNNVVQENSRSGSAEATNNHANGTQNKPRQPRGAADLCTPDKSRKFSLLPSRHGHSSSDPVYPCGICTNEVNDDQDAILCEASCQKWFHRICTGMTETAYGLLTAEASAVWGCDTCMADKDVQLMRTREAFGPPAVGGDA”, the “soluble on expression in E. coli” value was “soluble”.

Take “MKERLEHYSTSSIYSGFEVYLPLVLQTITDVIIAENIKSKKETGFKLYEHFTSRIKSEASMIEKCQRKQLPLTSKSALKIIKDSIGIRIICGFIDDIYRMVDLLKSIPGMSVNTEKDYILNAKPNGYRSYHLILELETHFPDILGEKKGCYFIEVQLRTIAQDSWASLEHQMKYKHQVANAEMITRELKRCADELASCDVTMQTIRQLIQETTEEE”: the “soluble on expression in E. coli” value was “not soluble”.

Turning to “AAISLDEQWRMIKENQLMMIAHGIASPRLPEASNLWLISLKLWSCESEIIDEQTFRRSFSDPALSHALDQRVCHDFFQQAAKAVASKGLSIALPLSVAGLSSATLVNELLEQLENSPLPARLLHLIIPAEAIFDHAESVQKLRLAGCRIVFSQVGRDLQIFNSLKANMADYLLLDGELCANVQGNLMDEMLITIIQGHAQRLGMKTIAGPVVLPLVMDTLSGIGVDLIYGDVIANAQPLDLLVNRSYFAIN”, the “soluble on expression in E. coli” value is recorded as “not soluble”.

On to “MGSDKIHHHHHHMNNNQTRVLITAIGTMNCTTIISELKKAEEVFYVIGADINGKYSIANSNEVDEFFQFPSVLHDREGYVQYLLNFCKEHNVEVFFCVVDEEVEVVAKHKEDFNAIGITLCLANIDAIITCHNKNLFAEWSEKNIAKYCIKRYENITDVNNDNFPIFIKPVEGRASIGCRKIENMEELWKYASVWDNYIAQEYVTGEIVSVDIVRNRKTEQFEVVQKLELLRNSNGCGIAVEIVDIPEIRQLCCIIADIFNLNGVINAEFFITNKGLKIIEINPRLPAGIEYSCMAGLDVVLNALRIARGEACIFKDIKIGAHYAKRYETYEIK”, for which the “soluble on expression in E. coli” value was “not soluble”.

Consider “MGSDKIHHHHHHMKILLHMCCGPCAAYPVEQLRGQGAAVTGYWFNHNIHPYQEYMRRRDTVRAYAEKVRLDVIWRDEYRLEEFLAAVAQNPDDRCFYCYFSRLDAVAAAAAAGGFDAFSSTLLYSRYQKHDAIRDCAERAAERHGVAFHYDDYRRGWQEGIRLSKELGLYRHQYCGCIYSEKERYHPREGAK”, for which the “soluble on expression in E. coli” value is reported as “not soluble”.

As for “MSLRHMQIETVNLPLARPMAAENGTRHAVTVIRVALEEKGFIGQGECTPAAHYGESADSVCRQLSAIREAIENGLTIEQLQQNLSPGAARNALDCALWRLNTALEKQTLWQRVGIHPPTSVVCAQTLALDSVEKMATAASNAVSHGALLLKIKLDRELILEKVAAIRAAAPNARLIIDARASWSGLDLHSLSTALLPYQVAMIEQPLPVGKDEDLQRFAHPIPICADESCRHSGDIVGLRRRYDMINIKLDKCGGLTEALAMVREAHFHGLRIMVGCTLGSSMAMEAALPVAADAEHVDLDGPIWLAADSSPYLTYNLGRIWLEGHHHHHH”, the “soluble on expression in E. coli” value is reported as “soluble”.

For the sequence “MGSDKIHHHHHHMPEPRRSTIDAGEVERFSALAAEWWNPNGKFRPLHKFNPVRLSYIRDQIAARFGRDPRAARPFEGLRILDIGCGGGLLCEPMARLGAEVVGADASETNIEVAKLHAAEGNVIVDYRATTAEDLADAGETFDVILNMEVVEHVADIDLFVAKCGQMVRPGGIMFVATINRTLKALGLAIIGAEYVLRWLPRGTHQFGKLVRPEELEKALGGASLTIIDRTGVTYNPLADRWARSKDMDVNYMVLAEKGSV”, the “soluble on expression in E. coli” value was “not soluble”.

For “MSLKVREEKLRTIIEWSEKNEDVRVLLLTSSLVNPLALVDEFSDLDIEFVFEDNTNYISDKSWTLKFGNPIAMIEEDESCFNHKHAMKMLLYEDGVKVDFKLYSKSKFIKETQEKELPEDWDIGYKILIDKDGITKQMLKPTYQISIIKKPSEKEFQNLINDFWWDTTYVAKCLVRDEIFYAKFMSETVIRTEYLIPLIEWHIASEHNWNITTNKYGRLFKKYLNQEMWAKTEQTFSGSDIKENWTALFSMTDLVSEIGTELSKKLEYKYPDKLENDIRKYLAGLKPKTEGHHHHHH”, the “soluble on expression in E. coli” value is listed as “soluble”.

For the sequence “SLDICSKNPCHNGGLCEEISQEVRGDVFPSYTCTCLKGYAGNHCETKCVEPLGMENGNIANSQIAASSVRVTFLGLQHWVPELARLNRAGMVNAWTPSSNDDNPWIQVNLLRRMWVTGVVTQGASRLASHEYLKAFKVAYSLNGHEFDFIHDVNKKHKEFVGNWNKNAVHVNLFETPVEAQYVRLYPTSCHTACTLRFELLGCELNGCANPLGLKNNSIPDKQITASSSYKTWGLHLFSWNPSYARLDKQGNFNAWVAGSYGNDQWLQVDLGSSKEVTGIITQGARNFGSVQFVASYKVAYSNDSANWTEYQDPRTGSSKIFPGNWDNHSHKKNLFETPILARYVRILPVAWHNRIALRLELLGC”, the “soluble on expression in E. coli” value is recorded as “soluble”.
